According to patent CN117866904A (BEILAI PHARMACEUTICAL CO LTD, dated 2024):

T1: IL-17A重组蛋白(抗原), IL-17 antigen with a C-terminal 6×His tag, expressed in E. coli BL21 (human, UniProt Q16552 24-155, limits assumed)
T1 sequence: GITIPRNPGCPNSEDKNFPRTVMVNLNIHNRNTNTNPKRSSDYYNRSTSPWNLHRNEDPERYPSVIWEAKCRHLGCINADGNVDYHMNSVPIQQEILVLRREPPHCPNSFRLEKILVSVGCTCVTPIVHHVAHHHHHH

T2: Biotin-IL-17A-His (UniProt Q16552 24-155, limits assumed, biotinylated (Biotin-IL-17A-His); site not stated)
T2 construct: not shown: His tag
T2 sequence (looked up): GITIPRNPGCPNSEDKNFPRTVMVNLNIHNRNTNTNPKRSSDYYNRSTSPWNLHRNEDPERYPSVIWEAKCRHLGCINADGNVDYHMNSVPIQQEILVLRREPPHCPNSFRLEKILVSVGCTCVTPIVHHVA

B1: IL-17Nb secreted by G4-H10-MSC (G4-H10:Fc融合蛋白, VHH-(GGGGS)3-VHH-IgG4 Fc) (Fc fusion)
chain: QVQLVESGGGLVQPGGSLRLSCAASGEKLDYFAIGWFRQAPGKEREVVSCVTSSGSSTNYLSSVKDRFTISIDNAKNTVYLQMNSLKPEDTAIYYCASTILLCSDYISAFGTWGQGTQVTVASGGGGSGGGGSGGGGSEVQLVESGGGLVQPGGSLRLSCAASGFSIHIYAMGWYRQAPGKQRELVATITRGGVTNNADSVKGRFTISRDNAKNTAYLQMNSLKPEDTAVYYCNAGGTNGGYWGQGTQVTVSSAPEFLGGPSVFLFPPKPKDTLMISRTPEVTCVVVDVSQEDPEVQFNWYVDGVEVHNAKTKPREEQFNSTYRVVSVLTVLHQDWLNGKEYKCKVSNKGLPSSIEKTISKAKGQPREPQVYTLPPSQEEMTKNQVSLTCLVKGFYPSDIAVEWESNGQPENNYKTTPPVLDSDGSFFLYSRLTVDKSRWQEGNVFSCSVMHEALHNHYTQKSLSLSLGK
B2: 阳性对照抗体Ixekizumab (antibody, human IgG4 S228P, kappa, V domains shown)
VH: QVQLVQSGAEVKKPGSSVKVSCKASGYSFTDYHIHWVRQAPGQGLEWMGVINPMYGTTDYNQRFKGRVTITADESTSTAYMELSSLRSEDTAVYYCARYDYFTGTGVYWGQGTLVTVSS
VL: DIVMTQTPLSLSVTPGQPASISCRSSRSLVHSRGNTYLHWYLQKPGQSPQLLIYKVSNRFIGVPDRFSGSGSGTDFTLKISRVEAEDVGVYYCSQSTHLPFTFGQGTKLEIKR
notes: also called 阳性抗体

Columns and labels:
[1] = target: 生物素化的IL-17A of the ACRO Biosystems IL-17A[Biotinylated]:IL-17RA Inhibitor Screening ELISA Kit (EP-139) (UniProt Q16552); assay: blocking ELISA kit: IL-17RA coated, biotinylated IL-17A; G4-H10-MSC supernatant diluted 5-fold; inhibition = [OD450 positive well - OD450 sample well]/OD450 positive well
[2] = target: T1, IL-17A重组蛋白(抗原), IL-17 antigen with a …; assay: cell-based or functional assay
[3] = target: T2, Biotin-IL-17A-His; assay: ELISA: antibody coated at 2 ug/mL; Biotin-IL-17A-His titrated from 10 ug/mL, 5-fold, 7 points; HRP-streptavidin; OD450

| Binder | 结合抑制率 (IL-17A/IL17RA) [1] [%] | IC50, 阻断Human IL-17A蛋白激活293F-IL-17RA-IL-17Rc-ACT1-NFκB-Luc报告基因细胞株 [2] [nM] | EC50 [3] [µg/mL] |
| --- | --- | --- | --- |
| B1 | 60 | – | – |
| B2 | – | 2.23 | 10.1 |
